Results: patent US20200115447A1 (Chugai, published 2020)
Changes are numbered by the printed parent chain.

Experiments:
[1] = target: T1, mFcγRI extracellular domain with C-terminal His-tag (mouse, UniProt P26151 25-297); test: Biacore SPR, antibody captured on Protein L, FcγR extracellular domain as analyte, 25 C
T1 construct: extracellular domain; also called mouse FcγRI
T1 sequence (looked up): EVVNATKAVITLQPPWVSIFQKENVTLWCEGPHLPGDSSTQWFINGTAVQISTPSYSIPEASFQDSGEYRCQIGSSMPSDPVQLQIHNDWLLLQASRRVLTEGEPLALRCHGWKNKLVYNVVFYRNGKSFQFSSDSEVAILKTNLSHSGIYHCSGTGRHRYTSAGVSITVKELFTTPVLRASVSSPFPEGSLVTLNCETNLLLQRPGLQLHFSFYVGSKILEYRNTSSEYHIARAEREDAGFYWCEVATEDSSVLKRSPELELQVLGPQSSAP
Procedure: (§1) Analysis of interaction between each of the altered antibodies and the extracellular domain of the Fcγ receptor prepared as mentioned above was carried out using Biacore T100 (GE Healthcare), Biacore T200 (GE Healthcare), Biacore A100, and Biacore 4000. HBS-EP+(GE Healthcare) was used for the running buffer, and the interactions were measured with a measurement temperature at 25° C. Chips produced by immobilizing Protein L (ACTIGEN or BioVision) by the amine coupling method to a Series S sensor Chip CM5 (GE Healthcare) or Series S sensor Chip CM4 (GE Healthcare) were used.
After capturing of each of the altered antibodies onto these sensor chips, the extracellular domain of the Fcγ receptor diluted with the running buffer was allowed to act on the chips to measure the binding level of each of the domains to each of the antibodies, and the binding levels were compared. However, since the amount of the bound extracellular domain of the Fcγ receptor depends on the amount of the antibodies captured on the sensorchip, the amount of the bound extracellular domain of the Fcγ receptor was divided by the respective amount of captured antibody to obtain corrected values, and these values were compared. Furthermore, by reaction with 10 mM glycine-HCl having pH of 1.5, antibodies captured onto the sensor chips were washed, and the regenerated sensor chips were used repeatedly.

[2] = target: T2, mFcγRII extracellular domain with C-terminal His-tag (mouse, UniProt P08101 30-210); test: Biacore SPR, antibody captured on Protein L, FcγR extracellular domain as analyte, 25 C, 1:1 Langmuir fit
T2 construct: extracellular domain; also called mouse FcγRII
T2 sequence (looked up): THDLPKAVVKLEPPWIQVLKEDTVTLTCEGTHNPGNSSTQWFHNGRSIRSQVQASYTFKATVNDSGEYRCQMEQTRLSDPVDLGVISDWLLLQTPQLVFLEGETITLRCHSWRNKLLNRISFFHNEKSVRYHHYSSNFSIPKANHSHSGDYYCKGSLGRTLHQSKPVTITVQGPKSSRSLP
Procedure: as §1
(§2) The KD values of each of the altered antibodies for the extracellular domain of the Fcγ receptor were calculated according to the following kinetic analysis method.

[3] = target: T3, mFcγRIII extracellular domain with C-terminal His-tag (mouse, UniProt P08508 31-215); test: as above
T3 construct: extracellular domain; also called mouse FcγRIII
T3 sequence (looked up): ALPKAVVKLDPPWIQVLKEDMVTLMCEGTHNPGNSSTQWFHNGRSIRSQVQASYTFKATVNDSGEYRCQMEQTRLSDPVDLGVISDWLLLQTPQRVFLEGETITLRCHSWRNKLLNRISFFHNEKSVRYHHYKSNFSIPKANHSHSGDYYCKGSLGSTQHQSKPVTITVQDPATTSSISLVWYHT
Procedure: as §1, §2

[4] = target: T4, mFcγRIV extracellular domain with C-terminal His-tag (mouse); test: as above
T4 construct: extracellular domain; also called mouse FcγRIV
T4 sequence (A0A0B4J1G0 21-203, looked up): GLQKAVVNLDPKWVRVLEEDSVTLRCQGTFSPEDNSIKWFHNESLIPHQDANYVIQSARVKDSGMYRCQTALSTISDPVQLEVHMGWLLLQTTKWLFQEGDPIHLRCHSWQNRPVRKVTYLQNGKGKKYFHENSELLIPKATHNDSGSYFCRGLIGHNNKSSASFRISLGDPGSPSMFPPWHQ
Procedure: as §1, §2

[5] = target: T1, mFcγRI extracellular domain with …; test: as above
Procedure: as §1, §2

[6] = target: T5, mouse FcRn (mouse, UniProt Q61559 22-297; P01887 21-119, limits assumed); test: Biacore SPR, mouse FcRn, pH 7.0
T5 sequence (looked up) 1: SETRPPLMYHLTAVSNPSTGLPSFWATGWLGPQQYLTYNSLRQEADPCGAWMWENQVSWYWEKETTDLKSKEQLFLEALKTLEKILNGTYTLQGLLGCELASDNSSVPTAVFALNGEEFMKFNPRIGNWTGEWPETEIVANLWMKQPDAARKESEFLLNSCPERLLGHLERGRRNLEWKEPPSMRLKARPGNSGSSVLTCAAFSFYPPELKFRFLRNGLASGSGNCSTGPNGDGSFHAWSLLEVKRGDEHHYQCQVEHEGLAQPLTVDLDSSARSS
T5 sequence (looked up) 2: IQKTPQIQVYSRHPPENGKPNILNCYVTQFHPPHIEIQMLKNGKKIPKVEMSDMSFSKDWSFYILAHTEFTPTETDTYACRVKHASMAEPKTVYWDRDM

[7] = target: T6, soluble human IL-6 receptor (human, UniProt P08887 20-357); test: SPR (Biacore T100), antibody captured via protein A/G on a CM5 chip, human IL-6 receptor injected for 3 min, 1.2 mM CaCl2, pH 7.4, 37 C
T6 construct: also called hsIL-6R
T6 sequence: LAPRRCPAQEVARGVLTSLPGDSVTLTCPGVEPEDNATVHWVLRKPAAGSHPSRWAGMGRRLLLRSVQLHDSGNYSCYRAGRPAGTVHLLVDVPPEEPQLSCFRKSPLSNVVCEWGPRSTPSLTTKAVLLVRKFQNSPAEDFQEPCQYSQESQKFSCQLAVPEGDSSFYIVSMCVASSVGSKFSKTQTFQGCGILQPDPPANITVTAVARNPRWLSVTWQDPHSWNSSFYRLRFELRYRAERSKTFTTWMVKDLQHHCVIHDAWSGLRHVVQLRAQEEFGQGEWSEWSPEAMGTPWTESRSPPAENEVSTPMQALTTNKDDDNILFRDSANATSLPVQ
Procedure: Interaction analyses were performed in a solution with a calcium ion concentration of 1.2 mM for the high calcium ion concentration condition or 3 μM for the low calcium ion concentration condition. A suitable amount of protein A/G (Invitrogen) was immobilized onto a Sensor chip CM5 (GE Healthcare) by the amine coupling method, and then antibodies of interest were captured onto the chips. Two types of buffers, 20 mM ACES, 150 mM NaCl, 0.05% (w/v) Tween 20, 1.2 mM CaCl₂ (pH 7.4) or 20 mM ACES, 150 mM NaCl, 0.05% (w/v) Tween 20, 3 μM CaCl₂ (pH 7.4), were used as the running buffer. […] All measurements were taken at 37° C.
Then, 10 mM glycine-HCl (pH 1.5) was injected at a flow rate of 30 μL/min for 30 seconds to regenerate the sensor chip.

[8] = target: T7, human FcRn (human); test: Biacore SPR, pH7.0, against VH3/L(WT)-IgG1
T7 construct: also called soluble human FcRn complexed with β2-microglobulin
T7 sequence (chain, as listed by the source limits assumed, chain 1 of 2): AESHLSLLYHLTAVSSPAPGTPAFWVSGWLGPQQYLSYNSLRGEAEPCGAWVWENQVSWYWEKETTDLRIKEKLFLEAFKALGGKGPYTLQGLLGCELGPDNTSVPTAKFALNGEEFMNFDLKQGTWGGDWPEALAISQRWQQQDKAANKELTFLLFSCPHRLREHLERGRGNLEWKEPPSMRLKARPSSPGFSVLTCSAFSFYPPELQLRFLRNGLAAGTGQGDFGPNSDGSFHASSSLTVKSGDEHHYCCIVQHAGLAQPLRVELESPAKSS
T7 sequence (P61769 21-119 limits assumed, chain 2 of 2): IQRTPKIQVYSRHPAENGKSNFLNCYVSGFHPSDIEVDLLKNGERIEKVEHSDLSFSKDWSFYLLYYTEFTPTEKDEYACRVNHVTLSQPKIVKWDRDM
Procedure: (§3) Kinetic analyses between human FcRn and the antibody were carried out using Biacore T100 (GE Healthcare). A suitable amount of protein L (ACTIGEN) was immobilized onto a Sensor chip CM4 (GE healthcare) by the amine coupling method, and antibodies of interest were captured onto it. Next, diluted solutions of FcRn and the running buffer which is the blank were injected, and human FcRn was made to interact with the antibodies captured on the sensor chip. The running buffer used was 50 mmol/L sodium phosphate, 150 mmol/L NaCl, 0.05% (w/v) Tween 20, pH7.0, and the buffer was used for the FcRn dilutions. The sensor chip was regenerated using 10 mmol/L Glycine-HCl, pH1.5. All measurements were carried out at 25° C. Based on the association rate constant ka (1/Ms) and dissociation rate constant kd (1/s), which are kinetic parameters, calculated from the sensorgram obtained by the measurement, the KD (M) (affinity) of each antibody toward human FcRn was calculated. Each parameter was calculated using the Biacore T100 Evaluation Software (GE Healthcare).

[9] = target: T8, human FcRn (human); test: Biacore, pH 7.0
T8 construct: also called soluble human FcRn complexed with β2-microglobulin
T8 sequence (chain, as listed by the source limits assumed, chain 1 of 2): as the sequence (chain, as listed by the source limits assumed, chain 1 of 2) above
T8 sequence (P61769 21-119 limits assumed, chain 2 of 2): as the sequence (P61769 21-119 limits assumed, chain 2 of 2) above
Procedure: as §3

[10] = target: T9, human FcRn (human); test: Biacore SPR, antibody captured on protein L, human FcRn as analyte, pH 7.0, 25 C
T9 construct: also called soluble human FcRn complexed with β2-microglobulin
T9 sequence (chain, as listed by the source limits assumed, chain 1 of 2): as the sequence (chain, as listed by the source limits assumed, chain 1 of 2) above
T9 sequence (P61769 21-119 limits assumed, chain 2 of 2): as the sequence (P61769 21-119 limits assumed, chain 2 of 2) above
Procedure: as §3

[11] = target: T6, soluble human IL-6 receptor; test: SPR (Biacore T100), about 300 RU of antibody captured via protein A/G on a CM5 chip, human IL-6 receptor injected for 3 min, pH 7.4, 1.2 mM CaCl2, 37 C
Procedure: The interaction for the antigen-antibody reaction was analyzed in solutions at pH 7.4 and pH 6.0, corresponding to a neutral pH and acidic pH conditions, respectively. An appropriate amount of Protein A/G (Invitrogen) was immobilized onto a Sensor chip CM5 (GE Healthcare) by an amino coupling method, and about 300 RU each of antibodies of interest were captured onto the chip. The two types of running buffers used were: 20 mM ACES/150 mM NaCl/0.05% (w/v) Tween20/1.2 mM CaCl₂ (pH 7.4); and 20 mM ACES/150 mM NaCl/0.05% (w/v) Tween20/1.2 mM CaCl₂ (pH 6.0). […] All measurements were carried out at 37° C.
Then, 10 mM glycine-HCl (pH 1.5) was injected at a flow rate of 30 μl/min for 30 seconds to regenerate the sensor chip.

B1: Fv4-mIgG1 (antibody)
heavy: QVQLQESGPGLVKPSETLSLTCAVSGHSISHDHAWSWVRQPPGEGLEWIGFISYSGITNYNPSLQGRVTISRDNSKNTLYLQMNSLRAEDTAVYYCARSLARTTAMDYWGEGTLVTVSSAKTTPPSVYPLAPGSAAQTNSMVTLGCLVKGYFPEPVTVTWNSGSLSSGVHTFPAVLQSDLYTLSSSVTVPSSTWPSETVTCNVAHPASSTKVDKKIVPRDCGCKPCICTVPEVSSVFIFPPKPKDVLTITLTPKVTCVVVDISKDDPEVQFSWFVDDVEVHTAQTQPREEQFNSTFRSVSELPIMHQDWLNGKEFKCRVNSAAFPAPIEKTISKTKGRPKAPQVYTIPPPKEQMAKDKVSLTCMITDFFPEDITVEWQWNGQPAENYKNTQPIMDTDGSYFVYSKLNVQKSNWEAGNTFTCSVLHEGLHNHHTEKSLSHSPGK
light: DIQMTQSPSSLSASVGDSVTITCQASTDISSHLNWYQQKPGKAPELLIYYGSHLLSGVPSRFSGSGSGTDFTFTISSLEAEDAATYYCGQGNRLPYTFGQGTKVEIERADAAPTVSIFPPSSEQLTSGGASVVCFLNNFYPKDINVKWKIDGSERQNGVLNSWTDQDSKDSTYSMSSTLTLTKDEYERHNSYTCEATHKTSTSPIVKSFNRNEC
notes: VH3-mIgG1 with VL3-mCK; copies: 2 + 2
Does B1 bind [1]?
Result: no binding

What about the Kd [2] of the same binder?
Its Kd is 570 nM.

And the Kd [3]?
Its Kd is 85 nM.

B2: Fv4-mIgG2a (antibody)
heavy: QVQLQESGPGLVKPSETLSLTCAVSGHSISHDHAWSWVRQPPGEGLEWIGFISYSGITNYNPSLQGRVTISRDNSKNTLYLQMNSLRAEDTAVYYCARSLARTTAMDYWGEGTLVTVSSAKTTAPSVYPLAPVCGDTTGSSVTLGCLVKGYFPEPVTLTWNSGSLSSGVHTFPAVLQSDLYTLSSSVTVTSSTWPSQSITCNVAHPASSTKVDKKIEPRGPTIKPCPPCKCPAPNLLGGPSVFIFPPKIKDVLMISLSPIVTCVVVDVSEDDPDVQISWFVNNVEVHTAQTQTHREDYNSTLRVVSALPIQHQDWMSGKEFKCKVNNKDLPAPIERTISKPKGSVRAPQVYVLPPPEEEMTKKQVTLTCMVTDFMPEDIYVEWTNNGKTELNYKNTEPVLDSDGSYFMYSKLRVEKKNWVERNSYSCSVVHEGLHNHHTTKSFSRTPGK
light: B1 light
notes: VH3-mIgG2a with VL3-mCK; copies: 2 + 2
Which results are given for B2?
Kd [4]: 3.2 nM; Kd [5]: 3.9 nM; Kd [2]: 480 nM; Kd [3]: 45 nM

B3: Fv4-mFa30 (antibody, mouse IgG2a, kappa)
heavy: B2 heavy with S241D, M254Y, S258E, K328D, L330Y, H435K, N436F
light: B1 light
notes: VH3-mFa30 with VL3-mCK; copies: 2 + 2
Which results are given for B3?
Kd [4]: 19 nM; Kd [5]: 0.99 nM; Kd [2]: 8.1 nM; Kd [3]: 5.3 nM; Kd [6]: 3.5 nM

B4: Fv4-mF3 (antibody, mouse IgG1, kappa)
heavy: B1 heavy with T248Y, T252E, H429K, N430F
light: B1 light
notes: VH3-mF3 with VL3-mCK; copies: 2 + 2
Does B4 bind [1]?
Result: no binding

What about the Kd [2] of the same binder?
The Kd was 870 nM.

And the Kd [3]?
The Kd was 140 nM.

What about the Kd [6] of the same binder?
The Kd was 1.5 nM.

B5: 6RC1IgG_019 (antibody, V domains shown)
VH: EVQLVQSGAEVKKPGSSVKVSCKASGGTFSSYAISWVRQAPGQGLEWMGGIIPIFGTANYAQKFQGRVTITADESTSTAYMELSSLRSEDTAVYYCARDRGSGFNWGNYAFDIWGQGFSVTVSS
VL: DIQMTQSPSSLSASVGDRVTITCRASQSIEDDLAWYQQKPGKAPKLLIYEASNLQSGVPSRFSGSGSGTDFTLTISSLQPEDFATYYCQQYDRYPYTFGQGTKVEIKR
Does B5 bind [7]?
Result: binds

B6: IgG1-F157 (antibody)
heavy: QVQLQESGPGLVKPSETLSLTCAVSGHSISHDHAWSWVRQPPGEGLEWIGFISYSGITNYNPSLQGRVTISRDNSKNTLYLQMNSLRAEDTAVYYCARSLARTTAMDYWGEGTLVTVSSASTKGPSVFPLAPSSKSTSGGTAALGCLVKDYFPEPVTVSWNSGALTSGVHTFPAVLQSSGLYSLSSVVTVPSSSLGTQTYICNVNHKPSNTKVDKKVEPKSCDKTHTCPPCPAPELLGGPSVFLFPPKPKDTLMISRTAEVTCVVVDVSHEDPEVKFNWYVDGVEVHNAKTKPREEQYNSTYRVVSVLTPLHQDWLNGKEYKCKVSNKALPAPIEKTISKAKGQPREPQVYTLPPSRDELTKNQVSLTCLVKGFYPSDIAVEWESNGQPENNYKTTPPVLDSDGSFFLYSKLTVDKSRWQQGNVFSCSVLHEALHYHYTQKSLSLSP
light: not shown
notes: EU numbering; also called VH3/L(WT)-F157; copies: 2 + 2
For B6, which “fold affinity relative to IgG1” value [8] is on record?
Its value is about 600 fold.

B7: F1353 (antibody)
heavy: B6 heavy with L237R, S241K, M254Y, A259P, P310V, L430M, H435D, Y438T, Q440R, S442E
light: not shown
notes: EU numbering; copies: 2 + 2
With B7 as the binder, how does the Kd [9] read?
Its Kd is 133 nM.

B8: F1430 (antibody, IgG1, name in EU numbering)
heavy: QVQLQESGPGLVKPSETLSLTCAVSGHSISHDHAWSWVRQPPGEGLEWIGFISYSGITNYNPSLQGRVTISRDNSKNTLYLQMNSLRAEDTAVYYCARSLARTTAMDYWGEGTLVTVSSASTKGPSVFPLAPSSKSTSGGTAALGCLVKDYFPEPVTVSWNSGALTSGVHTFPAVLQSSGLYSLSSVVTVPSSSLGTQTYICNVNHKPSNTKVDKKVEPKSCDKTHTCPPCPAPELRGGPKVFLFPPKPKDTLYISREPEVTCVVVDVSHEDPEVKFNWYVDGVEVHNAKTKPREEQYNSTYRVVSKLTPLHQDWLNGKEYKCKVSNKALPAPIEKTISKAKGQPREPQVYTLPPSRDELTKNQVSLTCLVKGFYPSDIAVEWESNGQPENNYKTTPPVLDSDGSFFLYSKLTVDKSRWQQGNVFSCSVMHEALDYHVTRKELSLSP
light: not shown
notes: EU numbering; copies: 2 + 2
How did the Kd [10] turn out when B8 was run?
The Kd was 31 nM.

B9: 6RpH#02 (antibody, human IgG1, kappa, V domains shown)
VH: QVQLVQSGAEVKKPGSSVKVSCKASGGTFSSYAISWVRQAPGQGLEWMGGIIPIFGTANYAQKFQGRVTITADESTSTAYMELSSLRSEDTAVYYCMINGVWEGGMDVWGQGTTVTVSS
VL: DIQMTQSPSSLSASVGDRVTITCRASQSIHSHLNWYQQKPGKAPKLLIYHASKLQSGVPSRFSGSGSGTDFTLTISSLQPEDFATYYCQQHGNSPLTFGQGTKVEIKR
Does B9 bind [11]?
Result: binds

B10: 6RC1IgG_010 (antibody, V domains shown)
VH: QVQLVQSGAEVKKPGSSVKVSCKASGGTFSSYAISWVRQAPGQGLEWMGGIIPIFGTANYAQKFQGRVTITADESTSTAYMELSSLRSEDTAVYYCARAAFLEWPIWGSEYFQHWGQGTLVTVSS
VL: B5 VL with E50H, N53S, Y91R, R93S, Y96L
Does B10 bind [7]?
Result: binds

B11: 6RpH#01 (antibody, human IgG1, kappa, V domains shown)
VH: EVQLVQSGAEVKKPGSSVKVSCKASGGTFSSYAISWVRQAPGQGLEWMGGIIPIFGTANYAQKFQGRVTITADESTSTAYMELSSLRSEDTAVYYCARASIYCSSTSCYEPPYYYYMDVWGKGTMVTVSS
VL: B9 VL with H30S, N34A, H50A, K53H, H91S, G92H, S94Y
Does B11 bind [11]?
Result: binds

B12: 6RC1IgG_012 (antibody, V domains shown)
VH: QVQLVQSGAEVKKPGASVKVSCKASGYTFTSYGISWVRQAPGQGLEWMGWISAYNGNTNYAQKLQGRVTMTTDTSTSTAYMELRSLRSDDTAVYYCARATYYYDSSAPAFDIWGQGTMVTVSS
VL: B5 VL with N53T, Y91H, R93D, Y94S, Y96L
Does B12 bind [7]?
Result: binds

B13: Tocilizumab (antibody, human IgG1, kappa, V domains shown)
VH: QVQLQESGPGLVRPSQTLSLTCTVSGYSITSDHAWSWVRQPPGRGLEWIGYISYSGITTYNPSLKSRVTMLRDTSKNQFSLRLSSVTAADTAVYYCARSLARTTAMDYWGQGSLVTVSS
VL: DIQMTQSPSSLSASVGDRVTITCRASQDISSYLNWYQQKPGKAPKLLIYYTSRLHSGVPSRFSGSGSGTDFTFTISSLQPEDIATYYCQQGNTLPYTFGQGTKVEIKR
notes: also called anti-IL-6R antibody (tocilizumab); control antibody
Does B13 bind [7]?
Result: binds
